Measurements reported in US20230212554A1 (published 2023).

B1: NP13 (antibody, V domains shown)
VH: EVQLVESGGGLVQPGGSLRLSCAASGFTINNYGIHWVRQAPGKGLEWVASIGPYGGSTYYADSVKGRFTISADTSKNTAYLQMNSLRAEDTAVYYCARFGYFNWLDMDYWGQGTLVTVSS
VL: DIQMTQSPSSLSASVGDRVTITCRASQDVGYWVAWYQQKPGKAPKLLISSASGLYSGVPSRFSGSGSGTDFTLTISSLQPEDFATYYCQQGWDWPITFGQGTKVEIKR
B2: NP10 (antibody, V domains shown)
VH: EVQLVESGGGLVQPGGSLRLSCAASGFTIDNGSIHWVRQAPGKGLEWVAWIWPFGGSTSYADSVKGRFTISADTSKNTAYLQMNSLRAEDTAVYYCARSWSSGYDYWGQGTLVTVSS
VL: DIQMTQSPSSLSASVGDRVTITCRASQDVSWSVAWYQQKPGKAPKLLISGSTWLYSGVPSRFSGSGSGTDFTLTISSLQPEDFATYYCQQYSNSPITFGQGTKVEIKR
B3: NP15 (antibody, V domains shown)
VH: EVQLVESGGGLVQPGGSLRLSCAASGFTISNWYIHWVRQAPGKGLEWVAGIGPYGGSTYYADSVKGRFTISADTSKNTAYLQMNSLRAEDTAVYYCARFHWDHLHGMDYWGQGTLVTVSS
VL: DIQMTQSPSSLSASVGDRVTITCRASQDVDNNVAWYQQKPGKAPKLLISYSTGLYSGVPSRFSGSGSGTDFTLTISSLQPEDFATYYCQQYWNYPITFGQGTKVEIKR

Legend:
Experiment in all cases: ELISA on recombinant NP
[1] = target: T1, NPA4 (influenza A virus …, UniProt A8C8J8 1-489)
[2] = target: NPA5 (influenza A virus A/Anhui/1/2005 …, UniProt Q6DPE5 1-489)
[3] = target: T1, NPA4; remark: listed apart in the source
[4] = target: T2, NPA1 (influenza A virus A/Taiwan/1/72 (H3N2), UniProt P16982 1-489)
T2 chain: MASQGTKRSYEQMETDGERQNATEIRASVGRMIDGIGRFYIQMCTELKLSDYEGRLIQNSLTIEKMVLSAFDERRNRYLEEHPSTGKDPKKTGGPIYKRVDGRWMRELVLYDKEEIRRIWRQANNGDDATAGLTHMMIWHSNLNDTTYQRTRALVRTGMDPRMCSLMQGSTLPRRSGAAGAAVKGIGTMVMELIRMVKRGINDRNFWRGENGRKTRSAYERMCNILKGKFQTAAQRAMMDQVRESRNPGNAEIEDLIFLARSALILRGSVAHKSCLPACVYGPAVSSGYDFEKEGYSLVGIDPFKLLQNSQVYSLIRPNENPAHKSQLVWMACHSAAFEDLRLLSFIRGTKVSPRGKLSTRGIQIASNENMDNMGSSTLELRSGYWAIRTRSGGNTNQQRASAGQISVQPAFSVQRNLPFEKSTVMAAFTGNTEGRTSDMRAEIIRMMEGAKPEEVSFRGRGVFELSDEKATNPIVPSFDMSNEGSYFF

Binder	EC50 [1] [nM]	EC50 [2] [nM]	binding result [3]	EC50 [4] [nM]
B1	0.07	0.09		
B2		0.28	no binding	0.36
B3	0.35			
